Source: the DeepSol protein solubility set

Experiment: soluble on expression in E. coli; label from the status in PepcDB or PDB records

Row | Sequence | soluble on expression in E. coli
1 | MGSDKIHHHHHHMYQVPLEMICRHDRTAEVCRAAVEEDGWQLENVPEEMKTPELCRKALETEAGFGNDFHRGLVQHIPSPEVCMEVLKECRENNPEELYGVAVAIRPEVMNGEMADFLLPLDGRCISILPVHLQTPERVRVAVETSGMSAVGRGGVPKSLLTPDVYVRCAAHSRESLMMIPWAERSPEVCLMAKTLYPDIVKNHPEFVPESVRNQDSIYTLNSLMESLTGEKFSYRQMTDFYNGKPLDVKRMETPDGVQKDKAVKFDKETGKFSFSDIRQERKRGLKM | not soluble
2 | MTRQEELAAARAALHDLMTGKRVATVQKDGRRVEFTATSVSDLKKYIAELEVQTGMTQRRRGPAGFYV | soluble
3 | MSLNPMIAKQKPNGNIQCLVCNAEIKPKIWTAHVNGKKHRDSIEKLKTSAQKRGKESSTRNTDEPPNKKQKEVPNQGPTTLPTDFFDDESTPFRKDDSKTATVGHNSNLIEGVPAGFFDDKRLDGNVRETRERNAELDAEYERWKEEIGEEQVELDTKAEELEAAVQRELELERIDEQMAALKKLNDMEIQKEKRLNQARERRLKREEPEEEEDDDGEDIDLDALDWRAKNIFA | not soluble
4 | MRGMAANQGERIRRRLSTGERREQLLSVGARLFSESPYDEVWIEQVAEIAGVSRGLLYHYFPNKRDFFAAVVERESERMLRMTAAVPGVPVREQLTAGLDAYLEYVRAHAHGYRAFHRADAAGDRAVRRVYQKALAAQERQILAALAADPEFGPAFEERGDVRLAVRGWLAFTTAVCLEWLRDPEPAREQVRDLCARALLGAVAP | not soluble
5 | MSLDVRIVDIDSEKPPEAKRCFLLSDVHGRADDIDTKYFNYDFDFLFFAGDMSNKSKYHEIKSFKKWINKMKAKYKIVVAGNHDLVFDREEFNDIIIGNHTAQEIRDLILKDKNIIYLEHEEITIEGIKIFGTPLSNIRIHQAFKEPYEDENDPHEEYLFFSIPDSTNIVLSHGVMKGYLDKEPNSRCKGSYGLRHAIDRVKPDLLICGHMHGCQGHTTHNNTTVILPSFCKRDKFGEETNNPYIIDIIPKLSLRMSIWKKSEKIPKMLKMNFPNVFFYLIFLILKKIWREELFVFEFYHDGEGHHHHHH | soluble
6 | MSGIGKRELIELYDKLLQFYGKQNWWPVDLEYHKTHGSDPREEVIIGAILTQNTSWKNVEKALENLKREKALNLKAIKEIPTEKLMELIKPAGFYRQKSLYLKEFANKFPSISHLKNVKREDLLKVKGIGKETADAILLYALDRLEFVVDAYTKRLLERLWNIKGSYEEIKRLFEKNLPKDLEIYREFHALIDIHAKEFCKKKPLCEECPLREKCIKSCF | soluble
7 | MARKKKTRRITDIMPIRKADKKIDITKARSGKKLTCYELDAKAREDKKKRKHKGLASGSRHSAVEEKANKLQNEIKDPKIGSKKKIPLVVEFVNKPEKGQVIPVIKQVKKQDPMKELENLENNEILNELLDALDAGKTISKSDQQFVDECLDRISELMEELGIEDEDESEDDLYRTFERMDINQFR | not soluble
8 | MSNEMKILLANPRGFCAGVDRAISIVERALELYQPPIYVRHEVVHNRFVVEGLKQRGAIFVEELHEVPDNNIVIFSAHGVSQAVRQEAKQRDLTVFDATCPLVTKVHMEVARASRRNMEVVLIGHAGHPEVEGTMGQYSSETGGMYLVETPADVEKLKAIVKDPSDLHYVSQTTLSVDETADVIEELRRVFPDIQGPRKDDICYATQNRQDAVRELAGDVDVMVVVGSKNSSNSTRLKELAEKLGTPGYLTDCPEDIKPEWFEGKTKVGVTAGASAPEELVNQILERIKELVGARSVDEVLGREENMFFEVPKELQIKQVD | not soluble
9 | MNRLLNEKVEEFKKGVLKAGWFIEKMFRNSISSLVERNESLAREVIADEEVVDQMEVEIQEKAMEVLGLFSPIGKPLLTVTAGIRVAELIENIADKCHDIAKNVLELMEEPPLKPLEDIPAMANQTSEMLKFALRMFADVNVEKSFEVCRMDSKVDDLYEKVREELLLYMMESPKYVKRALLLLEIAGNIEIIADYATNIVEVSVYMVQGEAYKCYHDELLLFKKSGGVLFESSD | soluble
10 | MAGDPMRMVAHRFLRPQEAHMQVLVRDNNVDQALRILKKKLQREGVFREMRLREAFEKPSIKKAREKAEAIGRQRKLARKQMQREGLLPTKPRKDKLEHHHHHH | not soluble
11 | MAKVRETYVCSACGANTPQWRGQCPTCKAWNTLDAVTVARETRSGVRRQGAPDSVRPRPLRDVSDEGGSPFGTGLEALDRVLGSGLVPGAAILFGGEPGIGKSTLLLQVAGAVAASGRDVLYLSGEESLTQLKGRAERLGVLHERLLAVATSRVEDVFSVLESGTPPALLVLDSVQTLTSDLAEGLPGNVSQVRAVATEVVDRCKRAGTAVLLVGHVTKDGNLAGPRLLEHMVDTVVSLEGDRRQMFRLLRVLKNRFGPNQELLVFQMAQRGLEVVEDPSTFFLGARDPALSGTAVVMAVDGQRPFAVEVQALVTRSYLAIPRRTGLGFDVNRLHLLLAVLEKRLRLNFGQVDIYAKIGGGMRLQDPGMDLALVAAVLSSFYDVALPERAVLWGEVDLNGQVRPVAAHDIRLGQAARLGYGPVLHPGEGRGAVPTVVELQARLFGKSGAPRHNPSELEHHHHHH | not soluble
12 | MIDDRQEEKMIKENVYFDGNVKSLGFSQQDGESTVGVMAPGQYTFGTGAPERMTVVKGALTIKRVTDADWVTFTAGEAFEVAGNSSFDLQVEVATAYLCEFLPA | not soluble
13 | MSAIEVKNLVKKFHGQTVLHGIDLEVKPGEVVAIIGPSGSGKTTLLRSINLLEQPEAGTITVGDITIDTARSLSQQKSLIRQLRQHVGFVFQNFNLFPHRTVLENIIEGPVIVKGEPKEEATARARELLAKVGLAGKETSYPRRLSGGQQQRVAIARALAMRPEVILFDEPTSALDPELVGEVLNTIRQLAQEKRTMVIVTHEMSFARDVADRAIFMDQGRIVEQGAAKALFADPEQPRTRQFLEKFLLQ | soluble
14 | MGSDKIHHHHHHLINVAETTGLQTKAFVGEADFQIVDYAGDKCIQFKNDSVFNAMLWEMNDMSEEERNNIFSGAGFVSQWQLMQEADQEQELIVDNYEKDLSQPWPAHQIKEFKQKYDDVFMFEPYDSTDFIAHYKLKGSTYSSFVNRRGVFLIGDSVAHAPVYKALEEYFGSGISLYGNNEATNEKNDINLAESKYQIPGGDYVKVRAIPRFIELQTIENKNYLSLGFDYLSQKKKVLWKKHRTMIILRLTASGSGSGFEVYNVSIKNYQNKNGVTILLHTDVYNKLLAKDQGGMLGHVGENPRNSVTIVTPPRFEFSGRMEIWSDEMPESNKGTAKISLKEDW | not soluble
15 | MSCSHYEERVEKVELPQLKVNGMAIGEDLLARELQYHPADSYALALEAACRALIVRQLLLQRADALGIEARCEDGETPEEARIRQLLEEEVQVPEADEDACRTWYAANPGRLLGPWRLQLRHVLLACAPDDLEGRETARKQAAELLDELRGHPERFVDLARRFSACPSKESGGDLGWIEPGQTVPEFEKRLLRRAPGLLEHPLESRYGLHVVELLAREGGEPLDFDAARAQIAAHLQAQVLQRAVGQYIGVLAGD | not soluble
16 | MEWTEEIVSKGFALYVALSKKGFITSKEDEYFQWYEERGVQDFIRKVIEPTGKVMIFLDEQDGVIQMVPEVENETMSYTNDDLKKELGFKDNKEIHLFYFILFILIAELEQPYDTESADRMYLPMDELLDKMNGYIEQYERLGEEKLEELSDEYDVDVAGIVEAWGRMADFKEGATSHIRTKDNRRMYIEKTLKFLEKEKLIRIREHTNISVTNKMKNIISHYYHNVENKSKIHDLLLVTREGTVGEEEE | not soluble
17 | MKIGIIGVGKMASAIIKGLKQTPHELIISGSSLERSKEIAEQLALPYAMSHQDLIDQVDLVILGIKPQLFETVLKPLHFKQPIISMAAGISLQRLATFVGQDLPLLRIMPNMNAQILQSSTALTGNALVSQELQARVRDLTDSFGSTFDISEKDFDTFTALAGSSPAYIYLFIEALAKAGVKNGIPKAKALEIVTQTVLASASNLKTSSQSPHDFIDAICSPGGTTIAGLMELERLGLTATVSSAIDKTIDKAKSL | soluble
18 | MIGYLRGLAVIVEDVEFARRLYKEGFYGRFLGYDKVKRDEVEKINAPLILGLYEALYLAEKGRLKVMGEDGREVAPEELAALGRERMRNFDEIYKIYKYFRDLGYVVKSGLKFGALFSVYEKGPGIDHAPMVVVFLEPDKGISATDITRGGRLSHSVRKTWTLATVLRQTGEVVLLGFGWARL | soluble
19 | MKHPIRKTLVTLGLLLTLCLPTPVAASSRSWKSWFIEQYFWLKRDKSYYSKQDDPSFQRYLDACREQSDKPYQLDTNLVNGPLVQENLYGMQVYSWNDNGKPDQKTIIYLAGGSYLNNPTTYHINMLKTLSTSLDAKIVLPIYPKAPRYTYNYTMPKLVNLYQHYYHKNQNVFLMGDSAGGGLALGLAHALHNESVPQPKQLVLLSPWLDVTMSHPEIPEYEDADPILSSWGLKRVGELWAYSADNTNHIYVSPKNGPITYLPPITLFTGTREIFYPDIRDYAAKLKAANHNITFITQEGMNHVYPIYPIEEAKTAQYQIIDAINKTP | not soluble
20 | MSALRSVLLLCWRDIGHPQGGGSEAYLQRIGAQLAASGIAVTLRTARYPGAPRHELVDGVRISRAGGRYSVYLWALLAMAAARCGLGPLRRVRPDVVVDTQNGWPFVARLLYGRRSLVLVHHCHREQWPVAGRMMGRLGWYVESMLSPRLHRRNQYVTVSLPSARDLIALGVDSERIAVVRNGLDEAPSPTLSGPRAPTPRVVVLSRLVPHKQIEDALAAVAELQPRIPGLHLDIVGGGWWRQRLVDHVHRLDIADAVTFHGHVDDVTKHHVLQSSWVHLLPSRKEGWGLAVIEAAQHGVPTIGYRSSGGLADSIVDGVTGILVDDRAELVAWLEQLLSDSVLRDQLGAKAQARSGEFSWRQSAEALRSVLEAVQASRFVSGVV | soluble
21 | MPYPFKLPDLGYPYEALEPHIDAKTMEIHHQKHHGAYVTNLNAALEKYPYLHGVEVEVLLRHLAALPQDIQTAVRNNGGGHLNHSLFWRLLTPGGAKEPVGELKKAIDEQFGGFQALKEKLTQAAMGRFGSGWAWLVKDPFGKLHVLSTPNQDNPVMEGFTPIVGIDVWEHAYYLKYQNRRADYLQAIWNVLNWDVAEEFFKKA | soluble
22 | SLQLKSEKARIILSGEPTLLIDKGKIDISALKSQRLNINDLMEELRLKNYFNVEDIEYAILETSGQISLIPKTHLTNATKEDLNLKVKQENVPITIILDGKVNTDNIKYLNKDADWLMKELKKNKIDSPKDVFLALIDSKGKFYYQKYNN | soluble
23 | MTRRDNEERVLHAATDTEQSQVTDLRQNVSATPLTDAEVGRLQLLEERATVQVERQGIGQVQVRKVVRERQEMVPVTLTTEVLEIVVTPAAQGTGAQNVGDTQTAAASAAGTTGNGGVSQVLIDGKPLEAGQTYEIPLTEERVQVMRQVVPLSEVVVRRQAQATTHEETVTLRREELEVLDEQGLARIVDEGAALEHHHHHH | soluble
24 | MNYMELYDVDEFWKFQMKVGLVKKAEKIKRTKKLIKLIVDFGNEERTIVTGIADQIPPEELEGKKFIFVVNLKPKKFSGVESQGMLILAETEDGKVYLIPVPEEVPVGARVW | soluble
25 | SYSSAFAQAASSSLATSSAISRAFASVSSASAASSLAYNIGLSAARSLGIASDTALAGALAQAVGGVGAGASASAYANAIARAAGQFLATQGVLNAVNASSLGSALANALSDSAANSAVSGNYLGVSQN | soluble
26 | MSRLEIYSPEGLRLDGRRWNELRRFESSINTHPHAADGSSYMEQGNNKIITLVKGPKEPRLKSQMDTSKALLNVSVNITKFSKFERSKSSHKNERRVLEIQTSLVRMFEKNVMLNIYPRTVIDIEIHVLEQDGGIMGSLINGITLALIDAGISMFDYISGISVGLYDTTPLLDTNSLEENAMSTVTLGVVGKSEKLSLLLVEDKIPLDRLENVLAIGIAGAHRVRDLMDEELRKHAQKRVSNASAR | not soluble
